In the assay the target is VARP451-640His6 Q509A (human) (UniProt Q96NW4). In words: ITC; Nano ITC; VARP constructs at 60 μM in the cell at 4°C, Rab constructs at 300 μM titrated, 24 injections of 2 μl; 50 mM HEPES pH 7.4, 200 mM NaCl, 5 mM MgCl2, 1 mM TCEP. A general note: Isothermal titration calorimetry measures the heat released or taken up as one component is titrated into another.
Chain of VARP451-640His6 Q509A (human) (Q96NW4 451-640 Q509A): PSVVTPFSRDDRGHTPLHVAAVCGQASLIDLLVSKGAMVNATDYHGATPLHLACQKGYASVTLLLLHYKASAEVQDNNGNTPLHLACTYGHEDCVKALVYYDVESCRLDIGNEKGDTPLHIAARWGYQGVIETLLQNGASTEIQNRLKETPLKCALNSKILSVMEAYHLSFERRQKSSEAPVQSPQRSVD

The Kd is the free concentration of one partner at which half of the binding sites on the other are occupied at equilibrium, for simple one-to-one binding. A lower Kd goes with tighter binding. Substance “Rab32 1-225 (Q85L), GTP hydrolysis-defective mutant, GST removed (from UniProt Q13637 1-225) (enzyme)” returned a Kd of 30 µM.
